Assay results published in the supplement of paper PMC10065799, “High-throughput profiling of sequence recognition by tyrosine kinases and SH2 domains using bacterial peptide display” (eLife, 2023).
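Further: 11-residue human phosphosite peptides and single-mutation variants displayed on the E. coli surface, counted by deep sequencing, each peptide's frequency after selection divided by its frequency in the unselected input library; frequency after pTyr selection over input frequency; kinase dosed for 20-30% of maximal phosphorylation in three min.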

Each sequence was assayed against Hck (UniProt P08631) (assay: phosphorylation enrichment, bacterial display (enrichment ratio); higher = better substrate or ligand; peptides without Tyr show the background).
Chain of Hck (P08631 whole entry, looked up): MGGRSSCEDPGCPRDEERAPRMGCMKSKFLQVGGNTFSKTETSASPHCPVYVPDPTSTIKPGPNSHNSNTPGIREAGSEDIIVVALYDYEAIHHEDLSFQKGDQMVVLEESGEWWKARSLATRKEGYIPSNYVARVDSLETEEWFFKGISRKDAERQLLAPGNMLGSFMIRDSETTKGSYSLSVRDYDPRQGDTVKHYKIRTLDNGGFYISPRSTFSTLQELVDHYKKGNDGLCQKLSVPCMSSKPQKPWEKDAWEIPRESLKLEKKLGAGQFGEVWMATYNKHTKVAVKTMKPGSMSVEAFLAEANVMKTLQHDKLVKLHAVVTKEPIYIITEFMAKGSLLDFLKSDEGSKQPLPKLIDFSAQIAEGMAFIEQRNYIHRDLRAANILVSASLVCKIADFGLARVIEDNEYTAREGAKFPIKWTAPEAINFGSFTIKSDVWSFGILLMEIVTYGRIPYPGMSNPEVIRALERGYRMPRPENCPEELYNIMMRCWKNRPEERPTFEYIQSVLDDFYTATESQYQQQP
Sequence KGNMFYENSFA [EGFR_Y113_R108K_YF] has a phosphorylation enrichment of 0.449. With RAIGHYSATSK [FAM120A_Y328_Y327H] the phosphorylation enrichment was 0.942. For HGTKVYIDPFT [EPHB4_Y590], the phosphorylation enrichment was 0.628. With DGTVHYVDEKG [IFT140_Y216] the phosphorylation enrichment was 0.586. SKEPFYVHCIK [MYO1D_Y586_R588H_YF] was tested, and the phosphorylation enrichment was 0.528. Work on MKGDFYRSLAE [YWHAG_Y131_Y133S_YF] yielded a phosphorylation enrichment of 0.49. Sequence RHTRSYDYMEG [FGF7_Y56] has a phosphorylation enrichment of 0.716. With ASKEPYYVHCI [MYO1D_Y585_R588H] the phosphorylation enrichment was 0.554. With HNMPIYEGFAL [ACTA1_Y168_V165M_YF] the phosphorylation enrichment was 15.6. LQEQNYLAVDS [FAM114A1_Y115] was tested, and the phosphorylation enrichment was 0.946. For LTSKPYAFTAW [NDUFS1_Y236_R241W], the phosphorylation enrichment was 0.353. CDYKKYGKGLR [ZNF445_Y433_Y428C] gave a phosphorylation enrichment of 0.349. VRALTYCDLHK [KCNH2_Y827] was tested, and the phosphorylation enrichment was 0.582. In the case of HFGNNYRDVLQ [MACC1_Y803_YF], the phosphorylation enrichment is reported as 0.594. In the case of TPSGNYVACGG [GNB1_Y111_A106T], the phosphorylation enrichment is reported as 0.488. Sequence GHLYAYDWIRI [BEST1_Y227_S231R] has a phosphorylation enrichment of 3.12. Work on RFVTRHIFNRE [HLA-DQB1_Y62_Y62H_YF] yielded a phosphorylation enrichment of 0.431. In the case of RHLQEYQDPLN [GFAP_Y349_L352P], the phosphorylation enrichment is reported as 0.517. Sequence VFGVSYDEFRF [CFTR_Y512_I507V_YF] has a phosphorylation enrichment of 1.25. With KNNSIYVVANI [VNN1_Y134] the phosphorylation enrichment was 0.888. With RRGLLYDSDEE [MCM2_Y137] the phosphorylation enrichment was 1.16. Sequence PRPAGYPSTVS [CACNA1C_Y1832] has a phosphorylation enrichment of 0.251. For GGMTEYKLVVV [KRAS_Y4], the phosphorylation enrichment was 0.446. For HYEFKYVINAI [MAOA_Y268_C266F], the phosphorylation enrichment was 0.489. SVMVPYEPPEV [TP53_Y220_V217M] showed a phosphorylation enrichment of 0.496. Work on DHAGEYGAEAL [HBA1_Y25_A20D] yielded a phosphorylation enrichment of 0.495. Sequence VKALKYKSMKI [ITGA11_Y1098_L1093V] has a phosphorylation enrichment of 0.31. Work on DKATEYIQFMR [MAX_Y70_YF] yielded a phosphorylation enrichment of 0.69. For AFPVSYSSSGA [RET_Y687], the phosphorylation enrichment was 0.303.

What follows are sequences tested against Jak2 (UniProt O60674) in the same assay as above.
Chain of Jak2 (O60674 whole entry, looked up): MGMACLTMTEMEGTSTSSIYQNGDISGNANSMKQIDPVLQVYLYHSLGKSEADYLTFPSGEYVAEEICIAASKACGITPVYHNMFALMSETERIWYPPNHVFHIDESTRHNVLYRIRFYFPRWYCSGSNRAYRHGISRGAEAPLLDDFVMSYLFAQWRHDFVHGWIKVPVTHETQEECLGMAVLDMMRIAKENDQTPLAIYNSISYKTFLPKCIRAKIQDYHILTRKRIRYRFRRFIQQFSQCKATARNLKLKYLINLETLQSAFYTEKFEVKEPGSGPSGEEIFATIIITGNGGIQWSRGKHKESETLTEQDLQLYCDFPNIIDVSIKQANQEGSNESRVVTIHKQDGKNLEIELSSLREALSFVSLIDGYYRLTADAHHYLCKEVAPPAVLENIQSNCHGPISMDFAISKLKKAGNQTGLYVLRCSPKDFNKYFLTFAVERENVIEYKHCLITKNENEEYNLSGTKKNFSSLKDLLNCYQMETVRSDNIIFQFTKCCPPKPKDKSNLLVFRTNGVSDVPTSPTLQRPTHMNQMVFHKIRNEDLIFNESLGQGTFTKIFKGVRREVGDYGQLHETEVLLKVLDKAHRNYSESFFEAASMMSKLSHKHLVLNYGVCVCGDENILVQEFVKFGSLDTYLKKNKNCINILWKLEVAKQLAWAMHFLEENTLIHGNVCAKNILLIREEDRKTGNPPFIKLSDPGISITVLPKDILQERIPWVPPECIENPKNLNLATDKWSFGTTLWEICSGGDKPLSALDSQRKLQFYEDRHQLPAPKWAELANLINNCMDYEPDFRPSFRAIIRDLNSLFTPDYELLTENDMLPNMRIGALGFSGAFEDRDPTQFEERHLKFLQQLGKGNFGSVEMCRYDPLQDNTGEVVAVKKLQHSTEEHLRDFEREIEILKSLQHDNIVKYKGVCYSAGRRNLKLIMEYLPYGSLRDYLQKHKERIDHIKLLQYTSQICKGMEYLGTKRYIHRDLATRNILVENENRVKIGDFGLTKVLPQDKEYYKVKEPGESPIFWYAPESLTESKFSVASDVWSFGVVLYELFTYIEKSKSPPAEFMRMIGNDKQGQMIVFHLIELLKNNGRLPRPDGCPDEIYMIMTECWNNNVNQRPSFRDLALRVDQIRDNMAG
Work on KGNMFYENSFA [EGFR_Y113_R108K_YF] yielded a phosphorylation enrichment of 0.751. In the case of RAIGHYSATSK [FAM120A_Y328_Y327H], the phosphorylation enrichment is reported as 0.665. HGTKVYIDPFT [EPHB4_Y590] was tested, and the phosphorylation enrichment was 0.815. Work on DGTVHYVDEKG [IFT140_Y216] yielded a phosphorylation enrichment of 0.832. SKEPFYVHCIK [MYO1D_Y586_R588H_YF] was tested, and the phosphorylation enrichment was 0.864. MKGDFYRSLAE [YWHAG_Y131_Y133S_YF] gave a phosphorylation enrichment of 0.811. RHTRSYDYMEG [FGF7_Y56] gave a phosphorylation enrichment of 0.513. ASKEPYYVHCI [MYO1D_Y585_R588H] showed a phosphorylation enrichment of 0.755. In the case of HNMPIYEGFAL [ACTA1_Y168_V165M_YF], the phosphorylation enrichment is reported as 0.859. With LQEQNYLAVDS [FAM114A1_Y115] the phosphorylation enrichment was 1.39. Sequence LTSKPYAFTAW [NDUFS1_Y236_R241W] has a phosphorylation enrichment of 0.682. Work on CDYKKYGKGLR [ZNF445_Y433_Y428C] yielded a phosphorylation enrichment of 0.563. Work on VRALTYCDLHK [KCNH2_Y827] yielded a phosphorylation enrichment of 0.605. With HFGNNYRDVLQ [MACC1_Y803_YF] the phosphorylation enrichment was 1.06. Work on TPSGNYVACGG [GNB1_Y111_A106T] yielded a phosphorylation enrichment of 0.602. GHLYAYDWIRI [BEST1_Y227_S231R] gave a phosphorylation enrichment of 0.941. RFVTRHIFNRE [HLA-DQB1_Y62_Y62H_YF] showed a phosphorylation enrichment of 0.766. For RHLQEYQDPLN [GFAP_Y349_L352P], the phosphorylation enrichment was 0.878. With VFGVSYDEFRF [CFTR_Y512_I507V_YF] the phosphorylation enrichment was 1.4. KNNSIYVVANI [VNN1_Y134] showed a phosphorylation enrichment of 1.04. With RRGLLYDSDEE [MCM2_Y137] the phosphorylation enrichment was 0.77. PRPAGYPSTVS [CACNA1C_Y1832] was tested, and the phosphorylation enrichment was 0.55. With GGMTEYKLVVV [KRAS_Y4] the phosphorylation enrichment was 0.685. HYEFKYVINAI [MAOA_Y268_C266F] showed a phosphorylation enrichment of 1.55. SVMVPYEPPEV [TP53_Y220_V217M] showed a phosphorylation enrichment of 1.09. DHAGEYGAEAL [HBA1_Y25_A20D] showed a phosphorylation enrichment of 0.675. VKALKYKSMKI [ITGA11_Y1098_L1093V] gave a phosphorylation enrichment of 0.434. DKATEYIQFMR [MAX_Y70_YF] showed a phosphorylation enrichment of 0.793. Sequence AFPVSYSSSGA [RET_Y687] has a phosphorylation enrichment of 0.52.
